Experimental data published in patent publication US8932880B2, “Method for the direct measure of molecular interactions by detection of light reflected from multilayered functionalized dielectrics” (ProXentia s.r.l., priority 2009, dated 2015).

Biological target: T1, Avidin (Gallus gallus, UniProt P02701)
T1 construct: purchased Sigma-Aldrich A9275
Experiment: Reflected light intensity from an antireflective SiO2-coated prism, He-Ne laser and photodiode (Example 2): binding to adsorbed Avidin
Conditions: 632.8 nm laser; flow 10 microliters/minute; phosphate buffer pH 7.4 + 150 millimolar NaCl; BSA 0.4 micromolar, BSA-biotin 0.5 micromolar
Excerpt: A layer of silicon oxide (SiO2) was deposed by sputtering on one side of a glass prism, as described in Example 1. The prism is placed in a flow cell so that the coated surface is in contact with the aqueous solution. A light beam from a 5 milliwatts He—Ne laser is sent to the interface between the aqueous solution and the prism and the reflected light is detected by a photodiode that converts the light intensity in an electrical signal. Through the cell is promoted a flow of 10 microliters/minute of an aqueous solution containing sodium phosphate buffer pH 7.4+150 millimolar NaCl (hereafter called “phosphate buffer”) in the following order:
b) protein Avidin (marketed by Sigma-Aldrich, prod. No. A9275) at a concentration of 3 micromolar;
d) protein Bovine Serum Albumin, BSA (marketed by Sigma-Aldrich, prod. No. A6003) at a concentration of 0.4 micromolar;
f) protein BSA conjugated to biotin (marketed by Sigma-Aldrich, prod. No. A8549) at a concentration of 0.5 micromolar;
In FIG. 5 the measured reflected intensity is reported as a function of time. The value of the reflected light intensity measured before the step a) corresponds to a reflectivity of 3.2·10^−6. […] Unlike in Example 1, in this case the adhesion molecules on the surface causes an increase in the intensity of reflected light. […]

T1 sequence (P02701 25-152): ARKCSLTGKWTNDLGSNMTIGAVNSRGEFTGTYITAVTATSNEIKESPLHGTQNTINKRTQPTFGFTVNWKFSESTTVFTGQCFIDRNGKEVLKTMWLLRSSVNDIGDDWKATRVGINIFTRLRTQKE

- variation of reflected intensity on flowing the solution over adsorbed Avidin: no further variation is observed
Substance: Bovine Serum Albumin [BSA protein]
